# Measurements: paper PMC5794792
# Legend:
# [1] = target: Bovine α-chymotrypsin (bovine); assay: enzyme inhibition kinetics (progress curves); inhibition of chymotrypsin by several serpin concentrations followed over time at 25 °C; slope of kobs against inhibitor concentration, corrected for non-productive turnover (k'ass); protease assay buffer pH 8.0 with chromogenic substrate
# [2] = target: Bovine α-chymotrypsin (bovine); assay: complex dissociation followed by regain of protease activity; 5 µM serpin-chymotrypsin complex diluted 200–2000-fold (0–25 nM) into assay buffer with substrate, 25 °C; apparent rate constant k_(diss,app)
substance,measurement,setting,value
α1-antitrypsin (from UniProt P01009 25-418) (natural protein),kon,[1],690000 M⁻¹ s⁻¹
same,koff,[2],7.5e-06 s⁻¹
